# Laboratory results from US20260070987A1.
# B1: equine IgG4 T286V (antibody, part only; not given: variable domains, not shown: another chain or arm of the molecule)
# constant: ASTTAPKVFPLASHSAATSGSTVALGCLVSSYFPEPVTVSWNSGALTSGVHTFPSVLQSSGLYSLSSMVTVPASSLKSQTYICNVAHPASSTKVDKKIVIKECNGGCPAECLQVGPSVFIFPPKPKDVLMISRTPTVTCVVVDVGHDFPDVQFNWYVDGVETHVATTEPKQEQFNSTYRVVSVLPIQHKDWLSGKEFKCKVNNKALPAPVERTISKPTGQPREPQVYVLAPHRDELSKNKVSVTCLVKDFYPTDIDIEWKSNGQPEPETKYSTTPAQLDSDGSYFLYSKLTVETNRWQQGTTFTCAVMHEALHNHYTEKSVSKSPGK
# B2: equine IgG4 T286W (antibody, part only; not given: Variable domains, not shown: another chain or arm of the molecule)
# constant: ASTTAPKVFPLASHSAATSGSTVALGCLVSSYFPEPVTVSWNSGALTSGVHTFPSVLQSSGLYSLSSMVTVPASSLKSQTYICNVAHPASSTKVDKKIVIKECNGGCPAECLQVGPSVFIFPPKPKDVLMISRTPTVTCVVVDVGHDFPDVQFNWYVDGVETHWATTEPKQEQFNSTYRVVSVLPIQHKDWLSGKEFKCKVNNKALPAPVERTISKPTGQPREPQVYVLAPHRDELSKNKVSVTCLVKDFYPTDIDIEWKSNGQPEPETKYSTTPAQLDSDGSYFLYSKLTVETNRWQQGTTFTCAVMHEALHNHYTEKSVSKSPGK
# B3: equine IgG4 T286Y (antibody, part only; not given: variable domains, not shown: another chain or arm of the molecule)
# constant: ASTTAPKVFPLASHSAATSGSTVALGCLVSSYFPEPVTVSWNSGALTSGVHTFPSVLQSSGLYSLSSMVTVPASSLKSQTYICNVAHPASSTKVDKKIVIKECNGGCPAECLQVGPSVFIFPPKPKDVLMISRTPTVTCVVVDVGHDFPDVQFNWYVDGVETHYATTEPKQEQFNSTYRVVSVLPIQHKDWLSGKEFKCKVNNKALPAPVERTISKPTGQPREPQVYVLAPHRDELSKNKVSVTCLVKDFYPTDIDIEWKSNGQPEPETKYSTTPAQLDSDGSYFLYSKLTVETNRWQQGTTFTCAVMHEALHNHYTEKSVSKSPGK
# B4: equine IgG1 Q311C (antibody, part only; not given: variable domains, not shown: another chain or arm of the molecule)
# constant: ASTTAPKVFALAPGCGTTSDSTVALGCLVSGYFPEPVKVSWNSGSLTSGVHTFPSVLQSSGFYSLSSMVTVPASTWTSETYICNVVHAASNFKVDKRIEPIPDNHQKVCDMSKCPKCPAPELLGGPSVFIFPPNPKDTLMITRTPEVTCVVVDVSQENPDVKFNWYMDGVEVRTATTRPKEEQFNSTYRVVSVLRIQHCDWLSGKEFKCKVNNQALPQPIERTITKTKGRSQEPQVYVLAPHPDELSKSKVSVTCLVKDFYPPEINIEWQSNGQPELETKYSTTQAQQDSDGSYFLYSKLSVDRNRWQQGTTFTCGVMHEALHNHYTQKNVSKNPGK
# B5: equine IgG1 Q311F (antibody, part only; not given: variable domains, not shown: another chain or arm of the molecule)
# constant: ASTTAPKVFALAPGCGTTSDSTVALGCLVSGYFPEPVKVSWNSGSLTSGVHTFPSVLQSSGFYSLSSMVTVPASTWTSETYICNVVHAASNFKVDKRIEPIPDNHQKVCDMSKCPKCPAPELLGGPSVFIFPPNPKDTLMITRTPEVTCVVVDVSQENPDVKFNWYMDGVEVRTATTRPKEEQFNSTYRVVSVLRIQHFDWLSGKEFKCKVNNQALPQPIERTITKTKGRSQEPQVYVLAPHPDELSKSKVSVTCLVKDFYPPEINIEWQSNGQPELETKYSTTQAQQDSDGSYFLYSKLSVDRNRWQQGTTFTCGVMHEALHNHYTQKNVSKNPGK
# B6: equine IgG1 Q311E (antibody, part only; not given: variable domains, not shown: another chain or arm of the molecule)
# constant: ASTTAPKVFALAPGCGTTSDSTVALGCLVSGYFPEPVKVSWNSGSLTSGVHTFPSVLQSSGFYSLSSMVTVPASTWTSETYICNVVHAASNFKVDKRIEPIPDNHQKVCDMSKCPKCPAPELLGGPSVFIFPPNPKDTLMITRTPEVTCVVVDVSQENPDVKFNWYMDGVEVRTATTRPKEEQFNSTYRVVSVLRIQHEDWLSGKEFKCKVNNQALPQPIERTITKTKGRSQEPQVYVLAPHPDELSKSKVSVTCLVKDFYPPEINIEWQSNGQPELETKYSTTQAQQDSDGSYFLYSKLSVDRNRWQQGTTFTCGVMHEALHNHYTQKNVSKNPGK
# B7: equine IgG1 Q311I (antibody, part only; not given: variable domains, not shown: another chain or arm of the molecule)
# constant: ASTTAPKVFALAPGCGTTSDSTVALGCLVSGYFPEPVKVSWNSGSLTSGVHTFPSVLQSSGFYSLSSMVTVPASTWTSETYICNVVHAASNFKVDKRIEPIPDNHQKVCDMSKCPKCPAPELLGGPSVFIFPPNPKDTLMITRTPEVTCVVVDVSQENPDVKFNWYMDGVEVRTATTRPKEEQFNSTYRVVSVLRIQHIDWLSGKEFKCKVNNQALPQPIERTITKTKGRSQEPQVYVLAPHPDELSKSKVSVTCLVKDFYPPEINIEWQSNGQPELETKYSTTQAQQDSDGSYFLYSKLSVDRNRWQQGTTFTCGVMHEALHNHYTQKNVSKNPGK
# B8: equine IgG1 Q311N (antibody, part only; not given: Variable domains, not shown: another chain or arm of the molecule)
# constant: ASTTAPKVFALAPGCGTTSDSTVALGCLVSGYFPEPVKVSWNSGSLTSGVHTFPSVLQSSGFYSLSSMVTVPASTWTSETYICNVVHAASNFKVDKRIEPIPDNHQKVCDMSKCPKCPAPELLGGPSVFIFPPNPKDTLMITRTPEVTCVVVDVSQENPDVKFNWYMDGVEVRTATTRPKEEQFNSTYRVVSVLRIQHNDWLSGKEFKCKVNNQALPQPIERTITKTKGRSQEPQVYVLAPHPDELSKSKVSVTCLVKDFYPPEINIEWQSNGQPELETKYSTTQAQQDSDGSYFLYSKLSVDRNRWQQGTTFTCGVMHEALHNHYTQKNVSKNPGK
# B9: equine IgG1 M252F (antibody, part only; not given: variable domains, not shown: another chain or arm of the molecule)
# constant: ASTTAPKVFALAPGCGTTSDSTVALGCLVSGYFPEPVKVSWNSGSLTSGVHTFPSVLQSSGFYSLSSMVTVPASTWTSETYICNVVHAASNFKVDKRIEPIPDNHQKVCDMSKCPKCPAPELLGGPSVFIFPPNPKDTLFITRTPEVTCVVVDVSQENPDVKFNWYMDGVEVRTATTRPKEEQFNSTYRVVSVLRIQHQDWLSGKEFKCKVNNQALPQPIERTITKTKGRSQEPQVYVLAPHPDELSKSKVSVTCLVKDFYPPEINIEWQSNGQPELETKYSTTQAQQDSDGSYFLYSKLSVDRNRWQQGTTFTCGVMHEALHNHYTQKNVSKNPGK
# B10: equine IgG1 Q311K (antibody, part only; not given: variable domains, not shown: another chain or arm of the molecule)
# constant: ASTTAPKVFALAPGCGTTSDSTVALGCLVSGYFPEPVKVSWNSGSLTSGVHTFPSVLQSSGFYSLSSMVTVPASTWTSETYICNVVHAASNFKVDKRIEPIPDNHQKVCDMSKCPKCPAPELLGGPSVFIFPPNPKDTLMITRTPEVTCVVVDVSQENPDVKFNWYMDGVEVRTATTRPKEEQFNSTYRVVSVLRIQHKDWLSGKEFKCKVNNQALPQPIERTITKTKGRSQEPQVYVLAPHPDELSKSKVSVTCLVKDFYPPEINIEWQSNGQPELETKYSTTQAQQDSDGSYFLYSKLSVDRNRWQQGTTFTCGVMHEALHNHYTQKNVSKNPGK
# B11: equine IgG1 Q311H (antibody, part only; not given: variable domains, not shown: another chain or arm of the molecule)
# constant: ASTTAPKVFALAPGCGTTSDSTVALGCLVSGYFPEPVKVSWNSGSLTSGVHTFPSVLQSSGFYSLSSMVTVPASTWTSETYICNVVHAASNFKVDKRIEPIPDNHQKVCDMSKCPKCPAPELLGGPSVFIFPPNPKDTLMITRTPEVTCVVVDVSQENPDVKFNWYMDGVEVRTATTRPKEEQFNSTYRVVSVLRIQHHDWLSGKEFKCKVNNQALPQPIERTITKTKGRSQEPQVYVLAPHPDELSKSKVSVTCLVKDFYPPEINIEWQSNGQPELETKYSTTQAQQDSDGSYFLYSKLSVDRNRWQQGTTFTCGVMHEALHNHYTQKNVSKNPGK
# B12: equine IgG1 Q311M (antibody, part only; not given: variable domains, not shown: another chain or arm of the molecule)
# constant: ASTTAPKVFALAPGCGTTSDSTVALGCLVSGYFPEPVKVSWNSGSLTSGVHTFPSVLQSSGFYSLSSMVTVPASTWTSETYICNVVHAASNFKVDKRIEPIPDNHQKVCDMSKCPKCPAPELLGGPSVFIFPPNPKDTLMITRTPEVTCVVVDVSQENPDVKFNWYMDGVEVRTATTRPKEEQFNSTYRVVSVLRIQHMDWLSGKEFKCKVNNQALPQPIERTITKTKGRSQEPQVYVLAPHPDELSKSKVSVTCLVKDFYPPEINIEWQSNGQPELETKYSTTQAQQDSDGSYFLYSKLSVDRNRWQQGTTFTCGVMHEALHNHYTQKNVSKNPGK
# B13: equine IgG1 Q311G (antibody, part only; not given: variable domains, not shown: another chain or arm of the molecule)
# constant: ASTTAPKVFALAPGCGTTSDSTVALGCLVSGYFPEPVKVSWNSGSLTSGVHTFPSVLQSSGFYSLSSMVTVPASTWTSETYICNVVHAASNFKVDKRIEPIPDNHQKVCDMSKCPKCPAPELLGGPSVFIFPPNPKDTLMITRTPEVTCVVVDVSQENPDVKFNWYMDGVEVRTATTRPKEEQFNSTYRVVSVLRIQHGDWLSGKEFKCKVNNQALPQPIERTITKTKGRSQEPQVYVLAPHPDELSKSKVSVTCLVKDFYPPEINIEWQSNGQPELETKYSTTQAQQDSDGSYFLYSKLSVDRNRWQQGTTFTCGVMHEALHNHYTQKNVSKNPGK
# B14: equine IgG1 Q311L (antibody, part only; not given: Variable domains, not shown: another chain or arm of the molecule)
# constant: ASTTAPKVFALAPGCGTTSDSTVALGCLVSGYFPEPVKVSWNSGSLTSGVHTFPSVLQSSGFYSLSSMVTVPASTWTSETYICNVVHAASNFKVDKRIEPIPDNHQKVCDMSKCPKCPAPELLGGPSVFIFPPNPKDTLMITRTPEVTCVVVDVSQENPDVKFNWYMDGVEVRTATTRPKEEQFNSTYRVVSVLRIQHLDWLSGKEFKCKVNNQALPQPIERTITKTKGRSQEPQVYVLAPHPDELSKSKVSVTCLVKDFYPPEINIEWQSNGQPELETKYSTTQAQQDSDGSYFLYSKLSVDRNRWQQGTTFTCGVMHEALHNHYTQKNVSKNPGK
# B15: equine IgG1 Q311D (antibody, part only; not given: variable domains, not shown: another chain or arm of the molecule)
# constant: ASTTAPKVFALAPGCGTTSDSTVALGCLVSGYFPEPVKVSWNSGSLTSGVHTFPSVLQSSGFYSLSSMVTVPASTWTSETYICNVVHAASNFKVDKRIEPIPDNHQKVCDMSKCPKCPAPELLGGPSVFIFPPNPKDTLMITRTPEVTCVVVDVSQENPDVKFNWYMDGVEVRTATTRPKEEQFNSTYRVVSVLRIQHDDWLSGKEFKCKVNNQALPQPIERTITKTKGRSQEPQVYVLAPHPDELSKSKVSVTCLVKDFYPPEINIEWQSNGQPELETKYSTTQAQQDSDGSYFLYSKLSVDRNRWQQGTTFTCGVMHEALHNHYTQKNVSKNPGK
# B16: equine IgG1 Q311R (antibody, part only; not given: variable domains, not shown: another chain or arm of the molecule)
# constant: ASTTAPKVFALAPGCGTTSDSTVALGCLVSGYFPEPVKVSWNSGSLTSGVHTFPSVLQSSGFYSLSSMVTVPASTWTSETYICNVVHAASNFKVDKRIEPIPDNHQKVCDMSKCPKCPAPELLGGPSVFIFPPNPKDTLMITRTPEVTCVVVDVSQENPDVKFNWYMDGVEVRTATTRPKEEQFNSTYRVVSVLRIQHRDWLSGKEFKCKVNNQALPQPIERTITKTKGRSQEPQVYVLAPHPDELSKSKVSVTCLVKDFYPPEINIEWQSNGQPELETKYSTTQAQQDSDGSYFLYSKLSVDRNRWQQGTTFTCGVMHEALHNHYTQKNVSKNPGK
# Target: equine FcRn (large alpha subunit p51) / equine beta-2-microglobulin complex, biotinylated (equine) (UniProt P30441)
# Experiment: SPR (Biacore), pH 6
# Chain of UniProt P30441 (P30441 21-118, one chain of several): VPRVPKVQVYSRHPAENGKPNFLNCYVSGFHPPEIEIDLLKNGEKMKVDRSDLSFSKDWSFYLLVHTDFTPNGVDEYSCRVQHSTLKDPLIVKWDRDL
row,Binder,Kd
1,B1,15.3 nM
2,B2,45 nM
3,B3,26.9 nM
4,B4,15.7 nM
5,B5,20.3 nM
6,B6,67.3 nM
7,B7,12.6 nM
8,B8,24.3 nM
9,B9,47.5 nM
10,B10,14.7 nM
11,B11,24.3 nM
12,B12,12 nM
13,B13,20.1 nM
14,B14,16.1 nM
15,B15,54.6 nM
16,B16,10.1 nM
